Data published in FireProtDB (doi:10.1021/bi00197a024).

Conditions: Saccharomyces cerevisiae (strain ATCC 204508 / S288c), Thermal, DSC, Sodium phosphate 0.1 M, reversible: yes

Sequence of Cytochrome c isoform 1 C108A, P00044 (P00044 whole entry C108A, canonical isoform): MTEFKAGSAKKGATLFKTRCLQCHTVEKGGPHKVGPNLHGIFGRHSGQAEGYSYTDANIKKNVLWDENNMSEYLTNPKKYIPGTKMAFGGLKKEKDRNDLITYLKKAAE
Sequence of Cytochrome c isoform 1 wild type, P00044 (P00044 whole entry, canonical isoform): as the sequence (P00044 whole entry C108A, canonical isoform) above, with A108C counted along it

Substance | Tm (pH 5, structure 1YCC) | unfolding enthalpy (calorimetric) (pH 5, structure 1YCC) | unfolding enthalpy (van 't Hoff) (pH 5, structure 1YCC) | Tm (pH 6, structure 1YCC) | unfolding enthalpy (calorimetric) (pH 6, structure 1YCC) | unfolding enthalpy (van 't Hoff) (pH 6, structure 1YCC) | Tm (pH 5) | unfolding enthalpy (calorimetric) (pH 5) | unfolding enthalpy (van 't Hoff) (pH 5) | Tm (pH 6) | unfolding enthalpy (calorimetric) (pH 6) | unfolding enthalpy (van 't Hoff) (pH 6)
Cytochrome c isoform 1 C108A, P00044 | 55.5 °C | 68.9 kcal/mol | 99.2 kcal/mol | 56.2 °C | 69.9 kcal/mol | 104 kcal/mol |  |  |  |  |  | 
Cytochrome c isoform 1 wild type, P00044 |  |  |  |  |  |  | 47.4 °C | 58.3 kcal/mol | 82.2 kcal/mol | 50.7 °C | 64.5 kcal/mol | 92.2 kcal/mol
